Source: PMC8710476

What was measured:
[1] = molecular target: CB6 (class I)
[2] = molecular target: BD368-2 (class II)
[3] = molecular target: REGN10933 (class I)

Substance	ratio to parent [1]	ratio to parent [2]	ratio to parent [3]
SARS-CoV-2 full-length spike, WT D614G, expressed on the cell surface (from UniProt P0DTC2) Alpha (B.1.1.7)	2.7 fold	1.3 fold	–
SARS-CoV-2 full-length spike, WT D614G, expressed on the cell surface (from UniProt P0DTC2) Beta (B.1.351)	-76.3 fold	-569 fold	-3.2 fold
SARS-CoV-2 full-length spike, WT D614G, expressed on the cell surface (from UniProt P0DTC2) Gamma (P.1)	-266 fold	–	–
